One assay addresses T1, human TNFα (human, UniProt P01375 77-233, biotinylated (EZ-Link NHS-LC-biotin) in Example 2).
T1 construct: Bought recombinant protein
Briefly: BLI (ForteBio), biotinylated TNFα on streptavidin tips, antibody in solution, 1:1 model. The procedure:
(§1) The binding analysis was performed as follows. Briefly, canine and human TNFα were biotinylated. The free unreacted biotin was removed from biotinylated TNFα by extensive dialysis. Biotinylated TNFα was captured on streptavidin sensor tips. The association of five different concentrations (150, 50, 17, 5.6, and 1.9 nM) of TNFα antibody and TNFα (human and canine, in different tests) was monitored for ninety seconds. Dissociation was monitored for 600 seconds. A buffer only blank curve was subtracted to correct for any drift. The data were fit to a 1:1 binding model using ForteBio™ data analysis software to determine the kon (association rate constant), koff (dissociation rate constant) and the KD (dissociation constant). […] The buffer for dilutions and all binding steps was: 200 mM phosphate, 150 mM NaCl, 0.02% Tween-20, 0.05% sodium azide, and 0.1 mg BSA, pH7.4.
(In general: In BLI a coated tip is dipped into the sample, and binding shifts an interference pattern.)

The target in assay [1] is T2, canine TNFα (canine, UniProt P51742 77-233, biotinylated (EZ-Link NHS-LC-biotin) in Example 2).
T2 construct: Bought recombinant protein; also called cTNFα; canine TNF-alpha
The description is as above. The procedure:
as §1

The target of assay [2] is T2, canine TNFα. Briefly: BLI (biosensor Octet), format not stated.

Changes are numbered by the printed parent chain.

T2 sequence (P51742 77-233 limits assumed): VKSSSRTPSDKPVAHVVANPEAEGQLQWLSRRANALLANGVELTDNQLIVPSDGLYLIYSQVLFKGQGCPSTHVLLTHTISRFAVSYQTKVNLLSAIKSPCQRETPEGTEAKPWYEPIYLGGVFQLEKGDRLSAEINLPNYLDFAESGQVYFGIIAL
T1 sequence (P01375 77-233 limits assumed): as the sequence (P51742 77-233 limits assumed) above, with K2R, E21Q, S30N, T44R, I49V, D53E, F83I, T109A, L138R, N140D counted along it

B1: KBA v1 (caninized TNFα D2E7 antibody: KBA VL v1 and canine kappa light constant region; caninized variable heavy chain of D2E7 and canine IgG-B constant region) (antibody, V domains shown)
VH: EVQLVESGGDLVKPGGSLRLSCVASGFTFDDYAMHWVRQAPGKGLQWVSAITWNSGHIDYADAVKGRFTISRDNAKNTLYLQMNSLRAEDTAVYYCAKVSYLSTASSLDYWGQGTLVTVSS
VL: DIVMTQTPLSLSASPGEPVSISCRASQGIRNYLAWYLQKPGQSPRLLIYAASTLQSGVPDRFSGSGSGTDFTLRIGRLEAEDAAIYYCQRYNRAPYTFGQGTKVEIKR
notes: Full light and heavy chains without leader; expressed in CHO cells, purified on Protein A; also called KIND-509
What is called Kd is the free concentration of one partner at which half of the binding sites on the other are occupied at equilibrium, for simple one-to-one binding. Read a low Kd as tighter binding. For orientation: koff means the rate constant with which the complex falls apart. The kon is the rate constant with which the complex forms. On to B1, for which, in the assay with human TNFα, the Kd was 20.7 pM, the koff is 1.53e-05 s⁻¹ and the kon stood at 741000 M⁻¹ s⁻¹. In the assay with canine TNFα [1], this molecule gave a Kd of 98.8 pM, a koff of 8.28e-05 s⁻¹ and a kon of 839000 M⁻¹ s⁻¹.

B2: KBA v2 (caninized TNFα D2E7 antibody: KBA VL v2 and canine kappa light constant region; caninized variable heavy chain of D2E7 and canine IgG-B constant region) (antibody, V domains shown)
VH: B1 VH
VL: B1 VL with L9P, Y36F, L37R, R45Q, P59S, G76S, E81D, I85V
notes: Full light and heavy chains without leader; expressed in CHO cells, purified on Protein A
In the assay with human TNFα, B2 displayed a Kd of 269 pM, a koff of 0.00015 s⁻¹ and a kon of 575000 M⁻¹ s⁻¹. Moreover, in the assay with canine TNFα [1], the Kd was determined as 303 pM, the koff amounted to 0.000216 s⁻¹ and the kon was 713000 M⁻¹ s⁻¹.

B3: bispecific molecule comprising SEQ ID NO: 77 and SEQ ID NO: 81 (anti-NGF + Fc IgGB (FcRn long-acting Q to Y, C1q-, CD16-) + anti-TNF ScFv) (bispecific antibody)
light: EIVMTQSPGSLAGSAGESVSINCRASEDIYNALAWYQQKPGERPKLLIYNTDTLHTGVPARFSSSGSGTDFTLTINNLQAEDVGDYFCQHYFGYPRTFGAGTKVELKRNDAQPAVYLFQPSPDQLHTGSASVVCLLNSFYPKDINVKWKVDGVIQDTGIQESVTEQDKDSTYSLSSTLTMSSTEYLSHELYSCEITHKSLPSTLIKSFQRSECQRVD
heavy: not shown
notes: Expressed in mammalian cells, purified on Protein A; also called bispecific anti-canine TNF and anti-canine NGF molecule
With B3, the Kd in the assay with canine TNFα [2] came to 838 pM.
